Key:
[1] = target: Als1p with the V326N mutation, V5-tagged, displayed on the surface of S. cerevisiae cells (Candida albicans) (UniProt Q5A8T4); assay: single-cell force spectroscopy (AFM); one live yeast cell on a polydopamine-coated tipless cantilever brought repeatedly into contact with another cell on a hydrophobic substrate; PBS, 20 C; 500 adhesion-rupture trials per cell pair
[2] = target: Wild-type Als1p (Candida albicans cell adhesion protein Als1p), V5-tagged, displayed on the surface of S. cerevisiae cells (Candida albicans) (UniProt Q5A8T4); assay: as above

Substance “Als1p with the V326N mutation, V5-tagged, displayed on the surface of S. cerevisiae cells (from UniProt Q5A8T4 18-1238) (natural protein)” has a % of cell pairs binding [1] of 7%, a mean maximum rupture force per pair [1] of 667 pN and a mean rupture force [1] of 517 pN.
In the case of “Wild-type Als1p (Candida albicans cell adhesion protein Als1p), V5-tagged, displayed on the surface of S. cerevisiae cells (from UniProt Q5A8T4 18-1238) (natural protein)”, the % of cell pairs binding [1] is reported as 33%, the mean maximum rupture force per pair [1] is reported as 953 pN and the mean rupture force [1] is reported as 483 pN. It also gave a % of cell pairs binding [2] of 97%, a mean maximum rupture force per pair [2] of 3330 pN and a mean rupture force [2] of 1510 pN.

— paper PMC6786869
